Values of other authors, collected in publication PMC3530658.

Molecular target: FEN-1 (Homo sapiens) (UniProt P39748)
Sequence of UniProt P39748 (P39748 whole entry): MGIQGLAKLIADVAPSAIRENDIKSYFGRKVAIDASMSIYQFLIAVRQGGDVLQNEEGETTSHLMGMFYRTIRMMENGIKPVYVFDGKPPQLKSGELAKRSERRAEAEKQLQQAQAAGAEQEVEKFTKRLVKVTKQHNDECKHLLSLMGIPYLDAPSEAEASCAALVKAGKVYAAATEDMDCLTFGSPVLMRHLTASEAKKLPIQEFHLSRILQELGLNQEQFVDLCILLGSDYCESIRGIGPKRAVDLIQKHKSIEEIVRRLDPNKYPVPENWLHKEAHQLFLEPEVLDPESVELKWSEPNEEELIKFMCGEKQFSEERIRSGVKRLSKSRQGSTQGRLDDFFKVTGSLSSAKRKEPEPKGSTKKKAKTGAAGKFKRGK

Kd: 200 nM
Substance: NEIL1 CTD (from UniProt Q96FI4)
